Measurements published in US20170362324A1 (Biogen, published 2017).

Assays:
[1] = biological target: T1, human soluble αvβ5 protein (extracellular domains of human αv and β5 integrin subunits) (human, UniProt P06756 31-992; P18084 24-719); test: αvβ5-vitronectin blocking ELISA
T1 construct: also called biotin-αvβ5; hsαvβ5
Procedure: Vitronectin Inhibition ELISA: 96-well microtiter plates were coated with 5 μg/ml purified human plasma vitronectin diluted in PBS (50 μl/well) at 4° C. overnight. After the coating solution was removed, the plates were blocked with 300 μl/well of 1% BSA/TBS at 25° C. for 1 hr. The plate was washed with wash buffer (0.05% Tween-20 in TBS containing 1 mM CaCl₂ and 1 mM MgCl₂), and dilutions of humanized antibodies mixed with 1 nM soluble αvβ5 protein in TBS containing 1% BSA, 1 mM CaCl₂ and 1 mM MgCl₂ were added (50 μl/well) and incubated at 25° C. for 1 hr. The plate was washed 4 times with wash buffer in an automated plate washer and incubated sequentially with 50 μl/well of the anti-beta5 monoclonal antibody 15F11 (at 0.5 ug/mL) in for 1 hr at 25° C. in TBS containing 1% BSA, 1 mM CaCl₂ and 1 mM MgCl₂. After washing the plate 4 times with wash buffer, 100 μl/well of a 1:5000 dilution of a peroxidase-conjugated goat anti-mouse antibody in TBS containing 1% BSA, 1 mM CaCl₂ and 1 mM MgCl₂ were added and incubated for 1 hr at 25° C. Bound protein was detected using the TMB substrate and indicated by the absorbency measured at 450 nm.
(§1) Based on the results described above in Example 4, four humanized ALULA constructs: VH2/VL2, VH4/VL0, VH4/VL2, and VH5/VL2, were selected for further testing. These VH/VL constructs were expressed as fusion proteins with the hybrid, aglycosylated IgG4.P (S228P)/IgG1 (N297Q) domain, and human kappa light chain domain, and purified from the conditioned medium of stably transfected CHO cells. Each humanized ALULA construct was assessed for binding using competition ELISA with murine ALULA and by FACS using human αvβ5-transfected BaF3 cells. Each humanized ALULA construct was also assessed for blocking binding/adhesion to vitronectin by ELISA or cell adhesion assays using BaF3 cells stably transfected with human or cynomolgous monkey αvβ5. The humanized ALULA constructs were compared to a chimeric form of ALULA comprising the murine heavy and light chain variable domains fused to human IgG1 heavy chain and human kappa light chain domains. The four humanized ALULA constructs behaved similarly in the assays, with H4/L2 generally having similar or slightly higher affinity/blocking potency than the other constructs (see, Table 3).

[2] = biological target: cynomolgus monkey αvβ5 expressed on BaF3 cells (cynomolgus monkey, UniProt A0A2K5WCD3 31-1048; A0A2K5UEB4 24-799); test: cell-based or functional assay
[3] = biological target: T2, human αvβ5 expressed on BaF3 cells (stably transfected with human αv and β5 subunits) (human, UniProt P06756 31-1048; P18084 24-799); test: cell-based or functional assay
[4] = biological target: T1, human soluble αvβ5 protein …; test: ALULA competition ELISA on soluble human αvβ5
Procedure: Competition ELISA: A 96-well microtiter plate was coated with 50 μl/well of 5 μg/mL soluble human αvβ5 protein at 4° C. overnight. The plate was washed with wash buffer (0.05% Tween-20 in PBS) four times in an automated plate washer. 300 μl/well of 1% BSA in PBS was added and incubated for 1 hr at 25° C. to block nonspecific binding. The plate was washed as above, and dilutions of humanized antibodies mixed with 1 nM murine ALULA in PBS containing 1% BSA, were added (50 μl/well). The plate was incubated for 1 hr at 25° C., washed, and then incubated for 40 minutes with 100 μl/well of […] goat anti-mouse antibody. Bound antibody was detected using 3,3′,5,5′-tetramethylbenzidine (TMB). Binding was indicated by the absorbency measured at 450 nm.
as §1

[5] = biological target: T2, human αvβ5 expressed on BaF3 cells …; test: FACS on BaF3-hu αvβ5 cells
Procedure: FACS Binding Assay: Cells were washed one time in PBS, and then resuspended in FACS buffer (1×PBS, 1% BSA, 1 mM CaCl₂, and 1 mM MgCl₂). 1×10⁶ cells were then incubated on ice for 1 hr in FACS buffer containing the test antibody in a total volume of 50 μl. After incubation, the cells were washed two times with ice cold FACS buffer, resuspended in 50 μl of FACS buffer containing 3 μg/ml goat anti-mouse IgG AlexaFluor488 (Jackson ImmunoResearch), and incubated on ice for 30 min. The cells were then washed twice with ice cold FACS buffer and fixed in 1% PFA overnight. Cell aggregates were removed by filtering through 40 μm filter plates (Millipore) and binding of the labeled secondary antibody was monitored by flow cytometry using a FACS Calibur (BD Biosciences).
as §1

[6] = biological target: T1, human soluble αvβ5 protein …; test: ELISA, Fab blocking of 2 nM soluble αvβ5 binding to immobilized human plasma vitronectin
Procedure: Fab fragments of the four constructs of Example 6 were generated from the corresponding IgG1(N297Q) versions by digestion with papain. The ability of each Fab to block 2 nM soluble αvβ5 binding to immobilized human plasma vitronectin was determined by ELISA.

[7] = biological target: T2, human αvβ5 expressed on BaF3 cells …; test: FACS binding curves on αvβ5-BaF3 cells, 10,000 cells/experiment; monovalent Fab, not mAb
Procedure: (§2) This experiment was carried out to confirm the affinity of ALULA-H4/L2-IgG4.P(S228P)/IgG1(N297Q) for cell surface expressed αvβ5 stably expressed on murine BaF3 cells. Binding curves were generated using a lower number of cells to ensure that antibody was not simply titrating the receptors on the cell.

[8] = biological target: T1, human soluble αvβ5 protein …; test: ELISA, purified hsαvβ5 coated at 2 µg/mL, anti-human IgG-HRP detection
Procedure: Purified hsαvβ5 protein was coated directly on a 96-well ELISA plate at 2 μg/mL, and H4/L2 antibody binding was detected using a horseradish peroxidase conjugated donkey anti-human IgG polyclonal antibody. In this format, the EC₅₀ of the H4/L2 antibody for αvβ5 was about 65 pM.

[9] = biological target: T2, human αvβ5 expressed on BaF3 cells …; test: FACS binding curves on αvβ5-BaF3 cells, 10,000 cells/experiment; mAb (bivalent IgG)
Procedure: as §2

[10] = biological target: T2, human αvβ5 expressed on BaF3 cells …; test: flow cytometry on BaF3 cells co-transfected with human αv and human β5
Procedure: The binding of the H4/L2 antibody (SEQ ID NOs.: 69 and 70) to αvβ5 expressed on the cell surface was determined using flow cytometry on BaF3 cells stably co-transfected with human αv and human β5 integrin subunits. BaF3 cells are a murine IL-3 dependent hematopoietic cell line of indeterminate origin. These cells endogenously express mouse alpha-V (as well as alpha-4, alpha-5, and beta-1 integrins) but no beta-5 or beta-6 integrin.
The H4/L2 antibody was added to cells in FACS Buffer (PBS, 1% BSA, 1 mM CaCl₂, 1 mM MgCl₂) for 30 minutes on ice. After washing, bound antibody was detected with an anti-human-Alexa Fluor® 488 secondary antibody. Cells fixed in 1% paraformaldehyde were collected on a FACS Calibur and mean fluorescence intensity was analyzed using FlowJo software.

T1 sequence (P06756 31-992 limits assumed, chain 1 of 2): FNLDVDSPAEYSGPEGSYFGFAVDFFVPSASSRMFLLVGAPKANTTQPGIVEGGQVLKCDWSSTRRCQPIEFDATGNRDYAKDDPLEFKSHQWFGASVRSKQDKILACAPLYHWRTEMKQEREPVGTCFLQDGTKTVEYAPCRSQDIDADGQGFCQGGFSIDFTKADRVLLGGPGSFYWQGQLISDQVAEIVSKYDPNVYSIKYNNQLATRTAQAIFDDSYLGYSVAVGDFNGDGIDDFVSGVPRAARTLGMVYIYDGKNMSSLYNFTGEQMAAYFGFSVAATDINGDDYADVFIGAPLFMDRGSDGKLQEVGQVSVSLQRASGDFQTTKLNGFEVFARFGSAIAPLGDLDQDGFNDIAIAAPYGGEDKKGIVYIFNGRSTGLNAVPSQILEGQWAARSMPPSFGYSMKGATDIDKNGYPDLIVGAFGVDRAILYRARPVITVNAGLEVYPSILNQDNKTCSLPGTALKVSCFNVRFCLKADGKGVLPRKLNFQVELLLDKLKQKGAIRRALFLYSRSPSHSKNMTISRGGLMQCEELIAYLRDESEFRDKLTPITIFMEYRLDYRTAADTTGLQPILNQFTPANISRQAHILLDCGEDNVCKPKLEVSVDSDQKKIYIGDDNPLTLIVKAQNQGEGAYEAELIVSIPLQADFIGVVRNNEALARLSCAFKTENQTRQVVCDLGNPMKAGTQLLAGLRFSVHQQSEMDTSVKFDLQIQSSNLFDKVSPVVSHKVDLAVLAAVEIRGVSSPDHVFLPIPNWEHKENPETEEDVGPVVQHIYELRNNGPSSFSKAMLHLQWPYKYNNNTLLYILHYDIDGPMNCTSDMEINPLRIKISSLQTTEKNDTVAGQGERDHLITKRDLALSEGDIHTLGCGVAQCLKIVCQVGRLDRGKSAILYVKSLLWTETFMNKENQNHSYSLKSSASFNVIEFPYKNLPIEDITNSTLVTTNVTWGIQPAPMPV
T1 sequence (P18084 24-719 limits assumed, chain 2 of 2): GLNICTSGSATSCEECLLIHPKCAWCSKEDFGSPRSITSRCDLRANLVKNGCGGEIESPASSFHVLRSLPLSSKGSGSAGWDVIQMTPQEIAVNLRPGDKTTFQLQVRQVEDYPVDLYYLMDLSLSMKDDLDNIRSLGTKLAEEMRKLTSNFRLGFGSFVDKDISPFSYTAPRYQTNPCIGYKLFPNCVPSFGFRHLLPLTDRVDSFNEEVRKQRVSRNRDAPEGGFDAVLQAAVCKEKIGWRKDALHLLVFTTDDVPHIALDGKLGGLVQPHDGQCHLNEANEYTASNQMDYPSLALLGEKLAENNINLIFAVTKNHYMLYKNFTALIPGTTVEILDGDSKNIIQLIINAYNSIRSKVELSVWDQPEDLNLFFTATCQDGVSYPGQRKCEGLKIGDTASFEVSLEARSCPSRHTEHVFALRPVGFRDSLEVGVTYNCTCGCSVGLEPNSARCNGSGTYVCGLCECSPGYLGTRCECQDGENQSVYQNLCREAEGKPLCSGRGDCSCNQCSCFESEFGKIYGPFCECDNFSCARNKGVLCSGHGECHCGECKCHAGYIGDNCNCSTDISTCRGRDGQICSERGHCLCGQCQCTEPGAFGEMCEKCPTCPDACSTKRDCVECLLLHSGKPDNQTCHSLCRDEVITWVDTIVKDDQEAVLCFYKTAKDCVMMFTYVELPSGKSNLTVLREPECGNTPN
T2 sequence (P06756 31-1048 limits assumed, chain 1 of 2): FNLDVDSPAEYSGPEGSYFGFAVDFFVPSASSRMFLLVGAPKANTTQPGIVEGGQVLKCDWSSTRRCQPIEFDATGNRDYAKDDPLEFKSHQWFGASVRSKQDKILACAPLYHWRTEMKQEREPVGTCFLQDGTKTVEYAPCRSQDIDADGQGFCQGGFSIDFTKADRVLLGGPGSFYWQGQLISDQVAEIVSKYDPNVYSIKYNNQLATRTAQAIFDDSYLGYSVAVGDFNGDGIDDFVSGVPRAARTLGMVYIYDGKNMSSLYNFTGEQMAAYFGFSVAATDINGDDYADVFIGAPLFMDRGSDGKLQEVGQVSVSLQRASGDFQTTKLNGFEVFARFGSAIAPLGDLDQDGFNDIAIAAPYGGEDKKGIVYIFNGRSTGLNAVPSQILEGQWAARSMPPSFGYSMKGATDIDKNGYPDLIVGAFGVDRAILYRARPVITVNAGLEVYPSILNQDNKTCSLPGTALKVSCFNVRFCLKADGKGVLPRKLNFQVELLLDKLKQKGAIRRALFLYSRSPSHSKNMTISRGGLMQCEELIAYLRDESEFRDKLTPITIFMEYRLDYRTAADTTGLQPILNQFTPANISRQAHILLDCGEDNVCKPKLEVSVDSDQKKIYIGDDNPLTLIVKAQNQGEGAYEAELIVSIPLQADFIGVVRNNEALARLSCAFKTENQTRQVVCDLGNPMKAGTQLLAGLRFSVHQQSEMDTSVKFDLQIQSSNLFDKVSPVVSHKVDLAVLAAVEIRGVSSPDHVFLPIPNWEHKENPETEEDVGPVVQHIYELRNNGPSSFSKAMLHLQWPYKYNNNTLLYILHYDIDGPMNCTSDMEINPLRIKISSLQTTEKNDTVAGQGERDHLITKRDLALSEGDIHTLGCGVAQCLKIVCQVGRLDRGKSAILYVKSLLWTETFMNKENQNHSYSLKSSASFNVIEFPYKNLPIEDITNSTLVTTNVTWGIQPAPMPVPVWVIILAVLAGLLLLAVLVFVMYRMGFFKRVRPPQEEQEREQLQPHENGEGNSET
T2 sequence (P18084 24-799 limits assumed, chain 2 of 2): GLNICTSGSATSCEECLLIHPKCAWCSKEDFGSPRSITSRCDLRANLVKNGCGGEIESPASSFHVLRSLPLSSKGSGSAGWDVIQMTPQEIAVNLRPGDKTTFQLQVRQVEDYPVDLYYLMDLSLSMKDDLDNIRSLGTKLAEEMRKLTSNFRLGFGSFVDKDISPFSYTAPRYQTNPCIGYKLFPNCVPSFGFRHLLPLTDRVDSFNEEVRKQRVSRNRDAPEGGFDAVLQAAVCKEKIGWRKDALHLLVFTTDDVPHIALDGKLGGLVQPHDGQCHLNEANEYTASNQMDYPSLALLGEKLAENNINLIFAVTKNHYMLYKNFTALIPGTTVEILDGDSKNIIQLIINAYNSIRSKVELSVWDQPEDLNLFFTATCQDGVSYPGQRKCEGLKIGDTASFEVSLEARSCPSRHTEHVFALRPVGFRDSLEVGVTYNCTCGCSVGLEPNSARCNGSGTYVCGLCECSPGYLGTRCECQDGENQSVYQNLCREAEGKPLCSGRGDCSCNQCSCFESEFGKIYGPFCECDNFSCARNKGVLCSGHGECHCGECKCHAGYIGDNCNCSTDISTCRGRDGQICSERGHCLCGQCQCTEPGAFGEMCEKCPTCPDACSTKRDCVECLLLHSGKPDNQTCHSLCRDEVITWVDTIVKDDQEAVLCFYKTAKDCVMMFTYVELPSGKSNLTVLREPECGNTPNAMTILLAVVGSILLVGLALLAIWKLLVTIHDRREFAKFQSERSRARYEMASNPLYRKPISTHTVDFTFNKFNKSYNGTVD

| IC50 [1] | BaF3-cyno αvβ5 Cell adhesion to vitronectin (IC50, nM) [2] | BaF3-hu αvβ5 Cell adhesion to vitronectin (IC50, nM) [3] | IC50 [4] | EC50 [5] | Fold change (IC50 against mouse chimeric ALULA) [6] | IC50 [6] | Kd [7] | Fold chg. (IC50 against mouse chimeric ALULA) [1] | EC50 [8] | BaF3-cyno αvβ5 Cell adhesion to vitronectin, Fold chg. (against mouse chimeric ALULA) [2] | BaF3-hu αvβ5 Cell adhesion to vitronectin, Fold chg. (against mouse chimeric ALULA) [3] | Kd [9] | EC50 [10] | Fold chg. (IC50 against mouse chimeric ALULA) [4] | Fold chg. (EC50 against mouse chimeric ALULA) [5] | Binder |
| --- | --- | --- | --- | --- | --- | --- | --- | --- | --- | --- | --- | --- | --- | --- | --- | --- |
| 1.6 nM | 0.61 nM | 0.17 nM | 1.81 nM | 5.06 nM |  |  |  |  |  |  |  |  |  |  |  | Mouse chimeric ALULA (murine ALULA variable domains fused to human IgG1 heavy chain and human kappa light chain domains) (antibody, V domains shown, also called chimeric form of ALULA; chimeric murine antibody) VH: EVQVQQSGTVLARPGASVKMSCKASGYTFTSYWMHWVKQRPGQGLEWIGAIYPGNSDTSYNQKFKGKAKLTAVTSPNTAYMELSSLTNEDSAVYYCTTTTYGYDWFAYWGQGTLVTVSA VL: NIMMTQSPSSLTVSAGEKVTMSCKSSQSVLYSSNQKNYLAWYQQKPGQSPKLLIYWASTRESGVPDRFTGSGSGTDFTLTISSVQAEDLAVYYCHQYLSSLTFGAGTKLELK |
|  |  |  |  |  | 0.9 fold | 4.3 nM | 0.42 nM |  |  |  |  |  |  |  |  | VH4/VL2 Fab fragment (Fab, V domains shown, also called H4/L2 (Fab source); H4L2 hIgG1 Fab) VH: EVQVVQSGGGLVKPGESLRLSCKASGYTFTSYWMHWVKQAPGKGLEWVGAIYPGNSDTSYNQKFKGKFTISADTSPNTAYLQMNSLKTEDTAVYYCTTTTYGYDWFAYWGQGTLVTVSS VL: NIQMTQSPSSLSASVGDRVTMSCKSSQSVLYSSNQKNYLAWYQQKPGKSPKLLIYWASTRESGVPDRFTGSGSGTDFTLTISSLQPEDFATYYCHQYLSSLTFGQGTKLEIK |
| 1.06 nM | 0.32 nM | 0.1 nM | 1.84 nM | 2.92 nM |  |  |  | 0.7 fold | ~0.065 nM | 0.5 fold | 0.6 fold | 0.08 nM | 3 nM | 1 fold | 0.6 fold | ALULA-H4/L2-IgG4.P(S228P)/IgG1(N297Q) (antibody, V domains shown, Hybrid aglycosylated IgG4.P (S228P)/IgG1 (N297Q) heavy chain, human kappa light chain; also called VH4/VL2 (Agly-IgG4P/G1); H4/L2 antibody) VH: EVQVVQSGGGLVKPGESLRLSCKASGYTFTSYWMHWVKQAPGKGLEWVGAIYPGNSDTSYNQKFKGKFTISADTSPNTAYLQMNSLKTEDTAVYYCTTTTYGYDWFAYWGQGTLVTVSS VL: NIQMTQSPSSLSASVGDRVTMSCKSSQSVLYSSNQKNYLAWYQQKPGKSPKLLIYWASTRESGVPDRFTGSGSGTDFTLTISSLQPEDFATYYCHQYLSSLTFGQGTKLEIKR |
| 1.24 nM | 0.63 nM | 0.29 nM | 1.85 nM | 2.9 nM |  |  |  | 0.8 fold |  | 1 fold | 1.7 fold |  |  | 1 fold | 0.5 fold | VH5/VL2 Agly-IgG4.P (S228P)/IgG1 (N297Q) (antibody, V domains shown, also called VH5/VL2 (Agly-IgG4P/G1); H5/L2) VH: EVQVQQSGGGLVKPGGSLRLSCKASGYTFTSYWMHWVKQAPGKGLEWVGAIYPGNSDTSYNQKFKGKATLSAVTSPNTAYLQMNSLKTEDTAVYYCTTTTYGYDWFAYWGQGTLVTVSS VL: NIQMTQSPSSLSASVGDRVTMSCKSSQSVLYSSNQKNYLAWYQQKPGKSPKLLIYWASTRESGVPDRFTGSGSGTDFTLTISSLQPEDFATYYCHQYLSSLTFGQGTKLEIKR |
| 1.74 nM | 0.61 nM | 0.3 nM | 2.61 nM | 5.73 nM |  |  |  | 1.1 fold |  | 1 fold | 1.8 fold |  |  | 1.4 fold | 1.1 fold | VH2/VL2 Agly-IgG4.P (S228P)/IgG1 (N297Q) (antibody, V domains shown, also called VH2/VL2 (Agly-IgG4P/G1); H2/L2) VH: EVQVVQSGGGLVKPGESLRLSCAASGYTFTSYWMHWVKQAPGKGLEWVGAIYPGNSDTSYNQKFKGKFTISADTSSNTAYLQMNSLKTEDTAVYYCTTTTYGYDWFAYWGQGTLVTVSS VL: NIQMTQSPSSLSASVGDRVTMSCKSSQSVLYSSNQKNYLAWYQQKPGKSPKLLIYWASTRESGVPDRFTGSGSGTDFTLTISSLQPEDFATYYCHQYLSSLTFGQGTKLEIKR |
| 1.52 nM | 0.43 nM | 0.09 nM | 1.84 nM | 2.52 nM |  |  |  | 1 fold |  | 0.7 fold | 0.5 fold |  |  | 1 fold | 0.5 fold | VH4/VL0 Agly-IgG4.P (S228P)/IgG1 (N297Q) (antibody, V domains shown, also called VH4/VL0 (Agly-IgG4P/G1); H4/L0) VH: EVQVVQSGGGLVKPGESLRLSCKASGYTFTSYWMHWVKQAPGKGLEWVGAIYPGNSDTSYNQKFKGKFTISADTSPNTAYLQMNSLKTEDTAVYYCTTTTYGYDWFAYWGQGTLVTVSS VL: DIQMTQSPSSVSASVGDRVTITCKSSQSVLYSSNQKNYLAWYQQKPGKAPKLLIYWASTRESGVPSRFSGSGSGTDFTLTISSLQPEDFATYYCHQYLSSLTFGQGTKVEIKR |
